For six molecules, Kd, koff and kon results are on record in EP4772193A1 (Teijin Pharma Limited, dated 2026).

The target of assay [1] is T1, recombinant mouse soluble gpNMB (recombinant mouse gpNMB-FLAG-His) (mouse, UniProt Q99P91 23-502).
T1 sequence: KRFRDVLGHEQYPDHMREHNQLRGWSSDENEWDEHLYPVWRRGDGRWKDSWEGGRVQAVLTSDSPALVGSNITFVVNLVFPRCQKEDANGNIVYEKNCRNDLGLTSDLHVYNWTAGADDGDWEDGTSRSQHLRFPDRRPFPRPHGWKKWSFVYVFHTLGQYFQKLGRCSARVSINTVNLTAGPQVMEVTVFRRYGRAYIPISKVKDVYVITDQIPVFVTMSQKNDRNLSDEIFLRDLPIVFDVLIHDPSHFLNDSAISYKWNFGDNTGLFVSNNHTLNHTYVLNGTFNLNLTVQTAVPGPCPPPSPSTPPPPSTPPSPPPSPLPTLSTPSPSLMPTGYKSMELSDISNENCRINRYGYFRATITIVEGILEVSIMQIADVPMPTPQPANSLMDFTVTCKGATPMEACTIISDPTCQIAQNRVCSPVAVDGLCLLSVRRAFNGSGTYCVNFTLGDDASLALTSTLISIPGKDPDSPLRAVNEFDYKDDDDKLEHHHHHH
The assay can be described thus: SPR, antibody 100 nM over captured gpNMB-FLAG-His, 25C. In general terms: Surface plasmon resonance follows binding to a sensor surface in real time, without labels.

Assay [2] deals with T2, recombinant human soluble gpNMB (recombinant human gpNMB-FLAG-His) (human, UniProt Q14956 23-498).
T2 sequence: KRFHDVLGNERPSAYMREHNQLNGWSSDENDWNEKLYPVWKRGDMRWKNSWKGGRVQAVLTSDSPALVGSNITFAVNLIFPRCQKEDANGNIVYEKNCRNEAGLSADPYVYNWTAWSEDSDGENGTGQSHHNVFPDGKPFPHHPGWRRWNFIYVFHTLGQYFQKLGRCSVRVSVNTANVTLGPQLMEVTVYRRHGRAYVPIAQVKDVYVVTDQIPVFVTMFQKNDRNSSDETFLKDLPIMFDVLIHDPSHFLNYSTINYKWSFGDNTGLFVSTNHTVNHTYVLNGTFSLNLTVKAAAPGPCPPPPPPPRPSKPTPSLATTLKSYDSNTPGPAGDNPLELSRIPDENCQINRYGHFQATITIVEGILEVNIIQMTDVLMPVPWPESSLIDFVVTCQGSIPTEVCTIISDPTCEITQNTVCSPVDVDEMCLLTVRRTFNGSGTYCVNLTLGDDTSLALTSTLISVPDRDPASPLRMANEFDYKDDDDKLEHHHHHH
Described as above.

B1: 1-5E (antibody, V domains shown)
VH: EVQLQQSGAELVRSGASVKLSCTASGFNIKDYYMHWVKQRPDQGLEWIGWIDPENGDTEYAPKFQGKATMTADTSPNTAYLQLSSLTSEDTAVYYCNGVYYGSRGFFDYWGQGTTLTVSS
VL: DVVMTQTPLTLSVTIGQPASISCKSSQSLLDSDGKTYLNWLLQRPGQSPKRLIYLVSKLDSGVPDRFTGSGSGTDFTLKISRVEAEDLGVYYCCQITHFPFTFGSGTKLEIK
notes: obtained by immunization with a vaccine peptide of a previous report; also called vaccine peptide antibody
For the molecule B1, in assay [1], the Kd was 9.1 nM, the off-rate (koff) came out at 0.0061 s⁻¹ and the kon amounted to 670000 M⁻¹ s⁻¹.

B2: GPN09-1 (antibody, V domains shown)
VH: QVQLKASGPGLVQPSQTLSLTCTVSGLSLTSININWIRQPPGKGLEWMGVIWSDGDTDFNSAVKSRLSISRDTSKSQVFLNMNSLQTEDTAMYFCARGIRDWGQGVMVTVSS
VL: DIVMTQTPLSLSVAIGQSASISCKSSQSLKYSDGKTYLNWVFQSPGQSPKRLIYQVSKLDSGVPDRFSGTGSETDFTLKISRVEAEDLGVYYCCQGSYSPHTFGSGTKLEIK
notes: monoclonal with mouse IgG constant regions
With B2, in assay [1], the Kd turned out to be 2.6 nM, the dissociation rate constant (koff) was determined as 0.00042 s⁻¹ and the on-rate (kon) was determined as 160000 M⁻¹ s⁻¹.

B3: GPN11-10 (antibody, V domains shown)
VH: QVNLLQSGAALVKPGASVRLSCKTSGYTFTDCYIHWVRQSHGKSLEWIGFINPNSGYTFYNEKFKSKATLTVAKSTNTAYMELSRLTSEDSATYFCTRGDYYTSNLYDWFAYWGQGTLVTVSS
VL: DTVMTQSPASMSTSVGERVTVNCKASQTVGTVVAWFQQKPGQSPKRLIYWATNRHTGVPDRFTGSGFGRDFSLTISNVEAEDLAVYYCLQYGSVPPTFGGGTKLELK
notes: as for B2
As to B3, in assay [1], the dissociation constant (Kd) was 4.9 nM, the koff came out at 0.00037 s⁻¹ and the on-rate (kon) amounted to 75000 M⁻¹ s⁻¹. Also, in assay [2], the Kd amounted to 13 nM, the koff was 0.001 s⁻¹ and the kon turned out to be 81000 M⁻¹ s⁻¹.

B4: GPN06-1 (antibody, V domains shown)
VH: QVQLQQPGAEIVRPGASVKLSCKASGYTFTDNWMGWVKQRPGQGLEWIGAIDPSDSFTNYNQNFKGKATLTVDTSSSTAYMQLSSLTSEDSAVYFCTRSGYYGSPKLGGDYWGQGTTLTVSS
VL: QIVLTQSPAIMSASLGEEITLTCSASSSISYMHWYQQKSGTSPKLLIYSTSNLASGVPSRFSGSGSGTFYSLTISSVEAEDAADYYCHQWNSYPCTFGGGTKLEIK
notes: as for B2
For the molecule B4, in assay [1], the dissociation constant Kd came to 12 nM, the koff is 0.0018 s⁻¹ and the kon came to 150000 M⁻¹ s⁻¹. Further, in assay [2], the Kd amounted to 1.4 nM, the koff was found to be 0.00049 s⁻¹ and the kon is 340000 M⁻¹ s⁻¹.

B5: GPN05-1 (antibody, V domains shown)
VH: QVQLQQSGAELVRPGTSVKVSCKASGYAFSNHLIEWVKQRPGQGLEWIGVINPGSGGTNYIEKFKGKATLTADKSSSTAYMQLSSLTSDDSAVYFCARGANWDVGFAYWGQGTLVTVSA
VL: EIQMTQSPSSMSASLGDRITITCQATQDIVKNLNWYQQKPGKPPSFLIYYATELAEGVPSRFSGSGSGSDFSLTISNLESEDFADYYCLQFHEFPRTFGGGTKLEIK
notes: as for B2
As to B5, in assay [1], the Kd worked out at 20 nM, the dissociation rate constant (koff) is 0.0013 s⁻¹ and the kon was found to be 61000 M⁻¹ s⁻¹. In addition, in assay [2], the equilibrium dissociation constant (Kd) came out at 3.3 nM, the koff came out at 0.00016 s⁻¹ and the kon was 48000 M⁻¹ s⁻¹.

B6: GPN15-2 (antibody, V domains shown)
VH: QVQLQQPGAELVKPGASVKMSCKASGYTFTNHNMHWVKQTPGQGLEWIGAFYTGNGDTSYNQKFKGKATLTADKSSSTAYIQLSSLTSEDSAVYYCARERYDGYYIAMDYWGQGTSVTVSS
VL: QIVLTQSPAFMSVSPGEKVTMTCSASSSVYYMFWYQQKPRSSPKPWIYLTSKLASGVPARFSGSGSGTSYSVTISSMEAEDAATYYCQQWSSNPQWTFGGGTKLEIK
notes: as for B2
With B6, in assay [1], the equilibrium dissociation constant (Kd) amounted to 2 nM, the dissociation rate constant (koff) worked out at 0.00028 s⁻¹ and the on-rate (kon) was found to be 140000 M⁻¹ s⁻¹. Besides, in assay [2], the equilibrium dissociation constant (Kd) was 0.0035 nM, the koff amounted to 6e-07 s⁻¹ and the association rate constant (kon) turned out to be 170000 M⁻¹ s⁻¹.

As a reminder, the Kd is the constant that tells how readily two partners part at equilibrium. A word on the koff: it is a measure of how fast the partners let go of each other. The term kon denotes the rate constant with which the complex forms.
